Target: IL-1 receptor (type I) on T24 cells (UniProt P14778)
Assay: cell-based or functional assay

Chain of UniProt P14778 (P14778 18-569 limits assumed): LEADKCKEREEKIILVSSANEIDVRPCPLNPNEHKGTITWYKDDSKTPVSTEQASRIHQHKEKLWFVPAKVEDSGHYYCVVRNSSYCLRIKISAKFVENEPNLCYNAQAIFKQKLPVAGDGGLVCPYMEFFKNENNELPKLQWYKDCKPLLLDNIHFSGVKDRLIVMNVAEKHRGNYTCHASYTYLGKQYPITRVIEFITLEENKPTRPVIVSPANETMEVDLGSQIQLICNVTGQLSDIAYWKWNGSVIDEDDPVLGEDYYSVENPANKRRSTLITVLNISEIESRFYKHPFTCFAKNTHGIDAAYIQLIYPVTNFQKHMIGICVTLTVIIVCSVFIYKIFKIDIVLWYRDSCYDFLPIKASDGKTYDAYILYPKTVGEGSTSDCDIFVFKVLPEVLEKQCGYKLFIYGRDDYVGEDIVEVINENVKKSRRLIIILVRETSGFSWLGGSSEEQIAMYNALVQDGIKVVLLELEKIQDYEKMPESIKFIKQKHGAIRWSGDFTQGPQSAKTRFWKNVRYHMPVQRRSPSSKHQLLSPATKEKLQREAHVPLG

inhibition of IL-1β-induced secretion of IL-8 from T24 cells, at 200 µg/ml [%] | inhibition of IL-1β-induced secretion of IL-8 from T24 cells, at 600 µg/ml [%] | inhibition of IL-1β-induced secretion of IL-8 from T24 cells, at 1800 µg/ml [%] | inhibition of IL-1β-induced secretion of IL-8 from T24 cells, at 8000 µg/ml [%] | inhibition of IL-1β-induced secretion of IL-8 from T24 cells, at 600 µg/ml or above [%] | Substance
70 | 50 | 100 | 100 |  | His-tagged IL-1Ra wild type (without signal peptide) from E. coli (from UniProt P18510 26-177) (ligand)
> 70 |  |  |  | 100 | commercial IL-1Ra WT (obtained from Prospec Tany TechnoGene Ltd (Rehovot Israel)) (from UniProt P18510 26-177) (ligand)

From US20050159590A1
